Target: T1, streptavidin (from Streptomyces avidinii, 50677, Sigma-Aldrich) (Streptomyces avidinii, UniProt P22629 37-163, limits assumed)
T1 construct: Commercial protein used as received
Test: graphene FET sensor, Langmuir fit of response against concentration; mixed monolayer (25% bio-GrBP5, 75% SS-GrBP5) washed before SA was added, BSA background
Description: A 20 μl drop of water was placed on the sensor and the resistance was allowed to equilibrate. The device was maintained in a hydration chamber at 100% humidity to prevent evaporation. Analyte was added to the static drop on the sensor in the appropriate concentrations, so that the total volume of the drop never exceeded 35μl. Data was collected from two distinct devices and each experiment was reproduced at least once. See supporting information for additional data.
By combining the anti-fouling properties of SS-GrBP5 with the biotinylated probe peptide, we created a sensor capable of selective detection of streptavidin in a bovine serum albumin solution. A mixed peptide monolayer consisting of 25% bio-GrBP5 and 75% SS-GrBP5 was formed in a single step from a solution with an overall concentration of 10 μg/ml. […] Guided by the results in FIG. 21, we introduced 5 μg/ml BSA to the sensor and detected no binding (FIG. 22C). We then introduced sequentially increasing concentrations of SA to the sensor, while maintaining the levels of BSA, and were able to reliably detect streptavidin at 100 ng/ml, although some signal was present at even lower concentrations (FIG. 22C). […] The overall stability of the bio-GrBP5 appears to have been improved by co-assembly with SS-GrBP5, displaying very high coverage and density. […]

T1 sequence (P22629 37-163 limits assumed): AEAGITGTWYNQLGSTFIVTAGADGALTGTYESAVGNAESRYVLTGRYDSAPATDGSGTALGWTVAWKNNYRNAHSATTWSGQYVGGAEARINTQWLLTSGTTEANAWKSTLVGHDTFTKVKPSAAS

B1: Bio-GrBP5 (biotin-graphite binding peptide fusion, Bio-IMVTESSDYSSY) (peptide)
peptide: IMVTESSDYSSY
HELM: PEPTIDE1{[O=C1N[C@H]2[C@H](CS[C@H]2CCCCC(=O)[*:2])N1].I.M.V.T.E.S.S.D.Y.S.S.Y}$$$$V2.0
SMILES: CC[C@H](C)[C@H](NC(=O)CCCC[C@@H]1SC[C@@H]2NC(=O)N[C@@H]21)C(=O)N[C@@H](CCSC)C(=O)N[C@H](C(=O)N[C@H](C(=O)N[C@@H](CCC(=O)O)C(=O)N[C@@H](CO)C(=O)N[C@@H](CO)C(=O)N[C@@H](CC(=O)O)C(=O)N[C@@H](Cc1ccc(O)cc1)C(=O)N[C@@H](CO)C(=O)N[C@@H](CO)C(=O)N[C@@H](Cc1ccc(O)cc1)C(=O)O)[C@@H](C)O)C(C)C
notes: Synthetic 12-mer with N-terminal biotin; In the assays it was self-assembled on graphite (nanowires or monolayer) or on a graphene FET sensor; also called biotinilated peptide; bio-GrBP5 peptide nanowires
Kd: ~1.5 nM

From patent US20140249052A1 (University of Washington, published 2014)
